Data published in patent US20030148958A1 (PROCTER AND GAMBLE, published 2003).
Ends that are not written are not given here.

T1: corticotropin releasing factor 2 receptor
T1 sequence (Q13324 whole entry, species assumed, looked up): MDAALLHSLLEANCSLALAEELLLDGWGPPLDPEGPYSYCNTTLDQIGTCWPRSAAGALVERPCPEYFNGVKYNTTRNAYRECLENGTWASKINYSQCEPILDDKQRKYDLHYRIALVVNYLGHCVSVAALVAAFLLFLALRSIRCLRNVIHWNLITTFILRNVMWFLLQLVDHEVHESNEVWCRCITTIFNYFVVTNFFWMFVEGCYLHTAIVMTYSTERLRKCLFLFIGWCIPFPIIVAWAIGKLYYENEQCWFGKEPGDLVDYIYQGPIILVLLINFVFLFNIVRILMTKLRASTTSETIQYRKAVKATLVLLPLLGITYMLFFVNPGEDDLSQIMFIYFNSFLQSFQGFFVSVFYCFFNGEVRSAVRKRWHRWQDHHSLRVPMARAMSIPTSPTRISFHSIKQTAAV


target: T1, corticotropin releasing factor 2 …; experiment: cell-based or functional assay
For CRF1R Emax in this document: reference of the scale not given here.
For CRF2R Emax in this document: reference of the scale not given here.

Row | Binder | CRF2R EC50 | CRF2R Emax
1 | IVLSLDVPIGLLQELLEMARAEQLAQQAHSNRKLMEII-NH2 [SEQ ID NO 1] | 0.0315 µM | 100%
2 | ZGPPISIDLPFQLLRKMIEIEKQEKEKQQAANNRLLLDTI (C-terminal amide) [SEQ ID NO 84] | 0.00177 µM | 100%
3 | ZGPPISIDLPFELLRKMIEIEKQEKEKQQAANNRLLLDTI (C-terminal amide) [SEQ ID NO 67] | 0.01 µM | 50%
4 | ZGPPISIDLPTALLRKMIEIEKQEKEKQQAANNRLLLDTI (C-terminal amide) [SEQ ID NO 61] | > 0.1 µM | 89%
5 | ZGPPISIDLPIHLLRKMIEIEKQEKEKQQAANNRLLLDTI (C-terminal amide) [SEQ ID NO 77] | 0.0433 µM | 100%
6 | ZGPPISIDLPIELLRKMIEIEKQEKEKQQAANNRLLLDTI (C-terminal amide) [SEQ ID NO 76] | 0.0915 µM | 76%
7 | ZGPPISIDLPTQLLRKMIEIEKQEKEKQQAANNRLLLDTI (C-terminal amide) [SEQ ID NO 72] | > 0.1 µM | 55%
8 | ZGPPISIDLPTGLLRKMIEIEKQEKEKQQAANNRLLLDTI (C-terminal amide) [SEQ ID NO 73] | > 0.1 µM | 11%
9 | ZGPPISIDLPTRLLRKMIEIEKQEKEKQQAANNRLLLDTI (C-terminal amide) [SEQ ID NO 60] | > 0.1 µM | 44%
10 | ZGPPISIDLPTHLLRKMIEIEKQEKEKQQAANNRLLLDTI (C-terminal amide) [SEQ ID NO 74] | 0.055 µM | 100%
11 | ZGPPISIDLPNYLLRKMIEIEKQEKEKQQAANNRLLLDTI (C-terminal amide) [SEQ ID NO 64] | 0.0633 µM | 94%
12 | ZGPPISIDLPTELLRKMIEIEKQEKEKQQAANNRLLLDTI (C-terminal amide) [SEQ ID NO 71] | 0.0948 µM | 56%
13 | ZGPPISIDLPFGLLRKMIEIEKQEKEKQQAANNRLLLDTI (C-terminal amide) [SEQ ID NO 68] | 0.0386 µM | 74%
14 | ZGPPISIDLPIQLLRKMIEIEKQEKEKQQAANNRLLLDTI (C-terminal amide) [SEQ ID NO 78] | 0.0246 µM | 78%
15 | ZGPPISIDLPTYLLRKMIEIEKQEKEKQQAANNRLLLDTI (C-terminal amide) [SEQ ID NO 70] | 0.0182 µM | 82%
16 | SQEPPISLDLPLQLLREVLEMTKADQLAQQAHSNRKLLDIA-NH2 [SEQ ID NO 95] | 0.1 µM | 8.25%
17 | SQEPPISLDLPLGLLREVLEMTKADQLAQQAHSNRKLLDIA-NH2 [SEQ ID NO 90] | 0.1 µM | 12.2%
18 | SQEPPISLDLPFQLLREVLEMTKADQLAQQAHSNRKLLDIA-NH2 [SEQ ID NO 91] | 0.1 µM | 7.1%
19 | SQEPPISLDLPIGLLREVLEMTKADQLAQQAHSNRKLLDIA-NH2 [SEQ ID NO 93] | 0.1 µM | 6.4%
20 | SQEPPISLDLTIGLLREVLEMTKADQLAQQAHSNRKLLDIA-NH2 [SEQ ID NO 86] | 0.1 µM | 8.1%
21 | SQEPPISLDLTIHLLREVLEMTKADQLAQQAHSNRKLLDIA-NH2 [SEQ ID NO 87] | 0.1 µM | 14.7%

The remaining lines, values ahead:

Row | CRF2R EC50 | CRF2R Emax | Binder
22 | > 0.1 µM | 27% | ZGPPISIDLPTNLLRKMIEIEKQEKEKQQAANNRLLLDTI (C-terminal amide) [SEQ ID NO 59]
23 | 0.00234 µM | 100% | ZGPPISIDLPFYLLRKMIEIEKQEKEKQQAANNRLLLDTI (C-terminal amide) [SEQ ID NO 85]
24 | 0.0679 µM | 64% | ZGPPISIDLPRYLLRKMIEIEKQEKEKQQAANNRLLLDTI (C-terminal amide) [SEQ ID NO 65]
25 | 0.00191 µM | 81% | ZGPPISIDLPLHLLRKMIEIEKQEKEKQQAANNRLLLDTI (C-terminal amide) [SEQ ID NO 83]
26 | 0.00585 µM | 81% | ZGPPISIDLPFHLLRKMIEIEKQEKEKQQAANNRLLLDTI (C-terminal amide) [SEQ ID NO 69]
27 | 0.0223 µM | 100% | ZGPPISIDLPIYLLRKMIEIEKQEKEKQQAANNRLLLDTI (C-terminal amide) [SEQ ID NO 79]
28 | > 0.1 µM | 52% | ZGPPISIDLPIGLLRKMIEIEKQEKEKQQAANNRLLLDTI (C-terminal amide) [SEQ ID NO 75]
29 | 0.00653 µM | 88% | ZGPPISIDLPLQLLRKMIEIEKQEKEKQQAANNRLLLDTI (C-terminal amide) [SEQ ID NO 80]
30 | 0.0673 µM | 100% | ZGPPISIDLPGYLLRKMIEIEKQEKEKQQAANNRLLLDTI (C-terminal amide) [SEQ ID NO 63]
31 | 0.0109 µM | 90% | ZGPPISIDLPLELLRKMIEIEKQEKEKQQAANNRLLLDTI (C-terminal amide) [SEQ ID NO 82]
32 | 0.0043 µM | 73% | ZGPPISIDLPLYLLRKMIEIEKQEKEKQQAANNRLLLDT (C-terminal amide) [SEQ ID NO 81]
33 | 0.1 µM | 19% | SQEIVLSLDVPIGLLREVLEMTKADQLAQQAHSNRKLLDIA-NH2 [SEQ ID NO 7]
34 | 0.1 µM | 12% | IVLSLDVPGPLLQILLEQTKQEAAREQATTNARILARV-NH2 [SEQ ID NO 5]
35 | 0.1 µM | 15.8% | SQEPPISLDLPTELLREVLEMTKADQLAQQAHSNRKIIDIA-NH2 [SEQ ID NO 92]
36 | 0.1 µM | 6.15% | SQEPPISLDLPIHLLREVLEMTKADQLAQQAHSNRKLLDIA-NH2 [SEQ ID NO 94]
37 | 0.1 µM | 12.6% | SQEPPISLDLTFGLLREVLEMTKADQLAQQAHSNRKLLDIA-NH2 [SEQ ID NO 88]
38 | 0.1 µM | 12.5% | SQEPPISLDLPFYLLREVLEMTKADQLAQQAHSNRKLLDIA-NH2 [SEQ ID NO 96]

target: corticotropin releasing factor 1 receptor; experiment: cell-based or functional assay

Row | Binder | CRF1R EC50 | CRF1R Emax
39 | IVLSLDVPIGLLQELLEMARAEQLAQQAHSNRKLMEII-NH2 [SEQ ID NO 1] | 0.783 µM | 64%
40 | ZGPPISIDLPFQLLRKMIEIEKQEKEKQQAANNRLLLDTI (C-terminal amide) [SEQ ID NO 84] | 0.0822 µM | 99%
41 | ZGPPISIDLPFELLRKMIEIEKQEKEKQQAANNRLLLDTI (C-terminal amide) [SEQ ID NO 67] | 0.0442 µM | 96%
42 | ZGPPISIDLPTALLRKMIEIEKQEKEKQQAANNRLLLDTI (C-terminal amide) [SEQ ID NO 61] | > 0.1 µM | 12%
43 | ZGPPISIDLPIHLLRKMIEIEKQEKEKQQAANNRLLLDTI (C-terminal amide) [SEQ ID NO 77] | > 0.1 µM | 5%
44 | ZGPPISIDLPIELLRKMIEIEKQEKEKQQAANNRLLLDTI (C-terminal amide) [SEQ ID NO 76] | > 0.1 µM | 7%
45 | ZGPPISIDLPTQLLRKMIEIEKQEKEKQQAANNRLLLDTI (C-terminal amide) [SEQ ID NO 72] | > 0.1 µM | 4%
46 | ZGPPISIDLPTGLLRKMIEIEKQEKEKQQAANNRLLLDTI (C-terminal amide) [SEQ ID NO 73] | > 0.1 µM | 11%
47 | ZGPPISIDLPTRLLRKMIEIEKQEKEKQQAANNRLLLDTI (C-terminal amide) [SEQ ID NO 60] | > 0.1 µM | 8%
48 | ZGPPISIDLPTHLLRKMIEIEKQEKEKQQAANNRLLLDTI (C-terminal amide) [SEQ ID NO 74] | > 0.1 µM | 7%
49 | ZGPPISIDLPNYLLRKMIEIEKQEKEKQQAANNRLLLDTI (C-terminal amide) [SEQ ID NO 64] | 0.0689 µM | 57%
50 | ZGPPISIDLPTELLRKMIEIEKQEKEKQQAANNRLLLDTI (C-terminal amide) [SEQ ID NO 71] | > 0.1 µM | 6%
51 | ZGPPISIDLPFGLLRKMIEIEKQEKEKQQAANNRLLLDTI (C-terminal amide) [SEQ ID NO 68] | > 0.1 µM | 33%
52 | ZGPPISIDLPIQLLRKMIEIEKQEKEKQQAANNRLLLDTI (C-terminal amide) [SEQ ID NO 78] | > 0.1 µM | 6%
53 | ZGPPISIDLPTYLLRKMIEIEKQEKEKQQAANNRLLLDTI (C-terminal amide) [SEQ ID NO 70] | > 0.1 µM | 8%
54 | SQEPPISLDLPLQLLREVLEMTKADQLAQQAHSNRKLLDIA-NH2 [SEQ ID NO 95] | 0.1 µM | 5.55%
55 | SQEPPISLDLPLGLLREVLEMTKADQLAQQAHSNRKLLDIA-NH2 [SEQ ID NO 90] | 0.1 µM | 4%
56 | SQEPPISLDLPFQLLREVLEMTKADQLAQQAHSNRKLLDIA-NH2 [SEQ ID NO 91] | 0.1 µM | 4%
57 | SQEPPISLDLPIGLLREVLEMTKADQLAQQAHSNRKLLDIA-NH2 [SEQ ID NO 93] | 0.1 µM | 5%
58 | SQEPPISLDLTIGLLREVLEMTKADQLAQQAHSNRKLLDIA-NH2 [SEQ ID NO 86] | 0.1 µM | 4.6%
59 | SQEPPISLDLTIHLLREVLEMTKADQLAQQAHSNRKLLDIA-NH2 [SEQ ID NO 87] | 0.1 µM | 5.3%

Continued, values first:

Row | CRF1R EC50 | CRF1R Emax | Binder
60 | > 0.1 µM | 10% | ZGPPISIDLPTNLLRKMIEIEKQEKEKQQAANNRLLLDTI (C-terminal amide) [SEQ ID NO 59]
61 | 0.011 µM | 84% | ZGPPISIDLPFYLLRKMIEIEKQEKEKQQAANNRLLLDTI (C-terminal amide) [SEQ ID NO 85]
62 | > 0.1 µM | 16% | ZGPPISIDLPRYLLRKMIEIEKQEKEKQQAANNRLLLDTI (C-terminal amide) [SEQ ID NO 65]
63 | 0.0522 µM | 96% | ZGPPISIDLPLHLLRKMIEIEKQEKEKQQAANNRLLLDTI (C-terminal amide) [SEQ ID NO 83]
64 | 0.0345 µM | 88% | ZGPPISIDLPFHLLRKMIEIEKQEKEKQQAANNRLLLDTI (C-terminal amide) [SEQ ID NO 69]
65 | > 0.1 µM | 8% | ZGPPISIDLPIYLLRKMIEIEKQEKEKQQAANNRLLLDTI (C-terminal amide) [SEQ ID NO 79]
66 | > 0.1 µM | 5% | ZGPPISIDLPIGLLRKMIEIEKQEKEKQQAANNRLLLDTI (C-terminal amide) [SEQ ID NO 75]
67 | > 0.1 µM | 55% | ZGPPISIDLPLQLLRKMIEIEKQEKEKQQAANNRLLLDTI (C-terminal amide) [SEQ ID NO 80]
68 | 0.0732 µM | 34% | ZGPPISIDLPGYLLRKMIEIEKQEKEKQQAANNRLLLDTI (C-terminal amide) [SEQ ID NO 63]
69 | 0.0962 µM | 85% | ZGPPISIDLPLELLRKMIEIEKQEKEKQQAANNRLLLDTI (C-terminal amide) [SEQ ID NO 82]
70 | 0.0609 µM | 81% | ZGPPISIDLPLYLLRKMIEIEKQEKEKQQAANNRLLLDT (C-terminal amide) [SEQ ID NO 81]
71 | 0.1 µM | 4% | SQEIVLSLDVPIGLLREVLEMTKADQLAQQAHSNRKLLDIA-NH2 [SEQ ID NO 7]
72 | 0.1 µM | 9% | IVLSLDVPGPLLQILLEQTKQEAAREQATTNARILARV-NH2 [SEQ ID NO 5]
73 | 0.1 µM | 4.6% | SQEPPISLDLPTELLREVLEMTKADQLAQQAHSNRKIIDIA-NH2 [SEQ ID NO 92]
74 | 0.1 µM | 7.3% | SQEPPISLDLPIHLLREVLEMTKADQLAQQAHSNRKLLDIA-NH2 [SEQ ID NO 94]
75 | 0.1 µM | 11.2% | SQEPPISLDLTFGLLREVLEMTKADQLAQQAHSNRKLLDIA-NH2 [SEQ ID NO 88]
76 | 0.1 µM | 16.3% | SQEPPISLDLPFYLLREVLEMTKADQLAQQAHSNRKLLDIA-NH2 [SEQ ID NO 96]
